From IntAct's records for PubMed 16959570

B1: FK506-binding protein 4 (Saccharomyces cerevisiae), Q06205 (parent)
chain: MSDMLPLATYSLNVEPYSPTPALNFKIPVTIRITMAAIDPEPFDDDKKPSTLRIIKRNPELTRGEYYNQDNNDGLEEDESESEQEADVPKRSVKSKKGKAVEQSESEDSEDENEIDDEFEECVLLTLSPKGQYQQALDITIAPEEDVQFVVTGSYTISLTGNYVKHPFDNSSDSDEDEEDYYSDEESSNGEEEEEEEEEDDEELSSGDDDLDDLVDASDIESRLDELVKKDEKKKNNKKDSKRKHEEDEEESAKPAEKKQTTKKDKKAEKVKDSEESKPKPKTKLLEGGIIIEDRVTGKGPHAKKGTRVGMRYVGKLKNGKVFDKNTKGKPFVFKLGQGEVIKGWDIGVAGMAVGGERRIVIPAPYAYGKQALPGIPANSELTFDVKLVSMK

Variants of: B1
Conditions: with h3_yeast HHT1, P61830

effect of a mutation on the interaction	Variant
disrupting interaction	MSDMLPLATYSLNVEPYSPTPALNFKIPVTIRITMAAIDPEPFDDDKKPSTLRIIKRNPELTRGEYYNQDNNDGLEEDESESEQEADVPKRSVKSKKGKAVEQSESEDSEDENEIDDEFEECVLLTLSPKGQYQQALDITIAPEEDVQFVVTGSYTISLTGNYVKHPFDNSSDSDEDEEDYYSDEESSNGEEEEEEEEEDDEELSSGDDDLDDLVDASDIESRLDELVKKDEKKKNNKKDSKRKHEEDEEESAKPAEKKQTTKKDKKAEKVKDSEESKPKPKTKLLEGGIIIEDRVTGKGPHAKKGTRVGMRYVGKLKNGKVADKNTKGKPFVFKLGQGEVIKGWDIGVAGMAVGGERRIVIPAPYAYGKQALPGIPANSELTFDVKLVSMK [F323A]
